Measured values as given in patent publication US5866544A, “Peptide-chelator conjugates” (Resolution Pharmaceuticals, Inc., priority 1997, dated 1999).
Where no end group is shown, it is not given here. The star is where a group is joined. Bz‑MA = benzoylmercaptoacetyl chelator, O=C(SCC(=O)*)c1ccccc1; Picolinoyl = O=C(c1ccccn1)*; Acm = CC(=O)NC*

Experiments:
[1] = system: rat inflammation model (E. coli, left hindleg); experiment: Biodistribution and imaging of Tc-99m labelled conjugates in a rat inflammation model; details: for Blood / G.I. tract / Urine: Tc-99m labelled conjugate i.v.; for inflam muscle: inflamed muscle (left leg); for Uninfl muscle: non-inflamed muscle (right leg); for Inflam:Uninfl: ratio inflamed to uninflamed muscle
[2] = in vivo; cited from earlier work

Substance	Blood ([1]; Time 35 min) [% dose/g]	G.I. tract ([1]; Time 35 min)	Urine ([1]; Time 35 min)	inflam muscle ([1]; Time 35 min) [% dose/g]	Uninfl muscle ([1]; Time 35 min) [% dose/g]	Inflam:Uninfl ([1]; Time 35 min)	further results
PicSerCys(Acm) Gly RTKPR: chelator PicSerCys(Acm), linking group Gly, peptide RTKPR (Seq ID no: 11); comparison conjugate ({Picolinoyl-Ser-Cys(Acm)}-GRTKPR)	0.169	15.0	45.4	0.099	0.033	3.0	–
Pic-Ser-Cys(Acm)-Gly-Asp-Gly-TKPPR (Picolinoyl-SC(Acm)GDGTKPPR) [PicSerCys(Acm) GDG TKPPR]	0.228	–	63.1	0.166	0.034	4.9	–
PicSerCys(Acm) Gly KPPR: chelator PicSerCys(Acm), linking group Gly, peptide KPPR (Seq ID no: 9); comparison conjugate ({Picolinoyl-Ser-Cys(Acm)}-GKPPR)	–	–	–	–	–	–	Blood ([1]; Time 45 min): 0.220 % dose/g; Urine ([1]; Time 45 min): 43.5; inflam muscle ([1]; Time 45 min): 0.125 % dose/g; Uninfl muscle ([1]; Time 45 min): 0.059 % dose/g; Inflam:Uninfl ([1]; Time 45 min): 2.1
PicSerCys(Acm) Gly TKPRTKPR: chelator PicSerCys(Acm), linking group Gly, peptide TKPRTKPR (tuftsin dimer, Seq ID no: 10); comparison conjugate ({Picolinoyl-Ser-Cys(Acm)}-GTKPRTKPR)	0.136	4.2	16.1	0.071	0.022	3.2	accumulation in blood, in words [1]: low accumulation; accumulation in the GI tract, in words [1]: low accumulation; urine levels / clearance into the urine, in words [1]: particularly low urine levels
PicSerCys(Acm) Gly TKPR: chelator PicSerCys(Acm), linking group Gly, native tuftsin peptide TKPR (Seq ID no: 1); comparison conjugate ({Picolinoyl-Ser-Cys(Acm)}-GTKPR)	0.268	22.8	22.8	0.120	0.040	3.0	–
Pic-Ser-Cys(Acm)-Gly-TKPPR (Picolinoyl-SC(Acm)GTKPPR) [PicSerCys(Acm) Gly TKPPR]	–	–	–	–	–	–	Blood ([1]; Time 30 min): 0.392 % dose/g; G.I. tract ([1]; Time 30 min): 5.08; Urine ([1]; Time 30 min): 44.71; Blood ([1]; Time 180 min): 0.048 % dose/g; G.I. tract ([1]; Time 180 min): 3.71; Urine ([1]; Time 180 min): 80.62; inflam muscle ([1]; Time 30 min): 0.154 % dose/g; inflam muscle ([1]; Time 180 min): 0.026 % dose/g; Uninfl muscle ([1]; Time 30 min): 0.052 % dose/g; Uninfl muscle ([1]; Time 180 min): 0.006 % dose/g; Inflam:Uninfl ([1]; Time 30 min): 3.6; Inflam:Uninfl ([1]; Time 180 min): 4.7
labelled tuftsin: naturally occurring tetrapeptide tuftsin TKPR (Seq. ID no:1) labelled with a radionuclide metal (also: labelled with a radionuclide metal)	–	–	–	–	–	–	accumulation in non-target tissue (gastrointestinal tract), in words [2]: accumulated in the gastrointestinal tract
Bz-MA-Ser-Cys-Ser-Gly-Asp-Gly-TKPPR ({Bz‑MA}-SCSGDGTKPPR) [BzMASerCys SGDG- TKPPR]	0.483	–	47.8	0.226	0.057	4.0	–
